From patent publication US20190307836A1 (Bicycle, published 2019) come the findings set out here.

Starred links: 1 amine or outer side, 2 acyl side, 3 side chain; linkers in the order of their positions; H or OH if unused. Positions of bridges follow the written chain, without caps; N, C: chain ends. Non-standard residues stand in square brackets, D forms with d. Chains are numbered I, II in the order given. No end group written: not given here. *: point of attachment. TATA = O=C(CC[*:1])N1CN(C(=O)CC[*:2])CN(C(=O)CC[*:3])C1; Hyp = O=C(O)[C@@H]1C[C@@H](O)CN1; hArg = N=C(N)NCCCC[C@H](N)C(=O)O; tBuAla = CC(C)(C)C[C@H](N)C(=O)O; Nle = CCCC[C@H](N)C(=O)O; Pent4ynoyl = C#CCCC(=O)*; Dap = NC[C@H](N)C(=O)O; βAla = NCCC(=O)O; Sar = CNCC(=O)O

The target in one test is T1, human EphA2 protein (human, UniProt P29317 25-534, limits assumed, biotinylated with EZ-Link Sulfo-NHS-LC-Biotin).
T1 construct: Construct not described
Nature of the test: SPR (Biacore T200), biotinylated human EphA2 on streptavidin chip. The protocol:
Streptavidin was immobilized on the chip using standard amine-coupling chemistry at 25° C. with HBS-N (10 mM HEPES, 0.15 M NaCl, pH 7.4) as the running buffer. Briefly, the carboxymethyl dextran surface was activated with a 7 min injection of a 1:1 ratio of 0.4 M 1-ethyl-3-(3-dimethylaminopropyl) carbodiimide hydrochloride (EDC)/0.1 M N-hydroxy succinimide (NHS) at a flow rate of 10 μl/min. […] Data were corrected for DMSO excluded volume effects. All data were double-referenced for blank injections and reference surface using standard processing procedures and data processing and kinetic fitting were performed using Scrubber software, version 2.0c (BioLogic Software). Data were fitted using simple 1:1 binding model allowing for mass transport effects where appropriate.

Test [1] concerns the target T2, Recombinant human CD137 (R&D systems) (human, UniProt Q07011 24-186, biotinylated with EZ-Link Sulfo-NHS-LC-LC-Biotin).
T2 construct: Bought protein; also called human CD137 protein; TNFRSF9
The experiment in a line: SPR (Biacore), biotinylated human CD137 on streptavidin chip. The protocol:
The protein was desalted to remove uncoupled biotin using spin columns into PBS.
For analysis of peptide binding, a Biacore T200 or a Biacore 3000 instrument was used with a XanTec CMD500D chip. Streptavidin was immobilized on the chip using standard amine-coupling chemistry at 25° C. with HBS-N (10 mM HEPES, 0.15 M NaCl, pH 7.4) as the running buffer. Briefly, the carboxymethyl dextran surface was activated with a 7 min injection of a 1:1 ratio of 0.4 M 1-ethyl-3-(3-dimethylaminopropyl) carbodiimide hydrochloride (EDC)/0.1 M N-hydroxy succinimide (NHS) at a flow rate of 10 μl/min. For capture of streptavidin, the protein was diluted to 0.2 mg/ml in 10 mM sodium acetate (pH 4.5) and captured by injecting 120 μl of onto the activated chip surface. Residual activated groups were blocked with a 7 min injection of 1 M ethanolamine (pH 8.5) and biotinylated CD137 captured to a level of 270-1500 RU. Buffer was changed to PBS/0.05% Tween 20 and a dilution series of the peptides was prepared in this buffer with a final DMSO concentration of 0.5%. The top peptide concentration was 500 nM with 6 further 2-fold or 3-fold dilutions. The SPR analysis was run at 25° C. at a flow rate of 90 μl/min with 60 seconds association and 900 seconds dissociation. After each cycle a regeneration step (10 μl of 10 mM glycine pH 2) was employed. Data were corrected for DMSO excluded volume effects as needed. All data were double-referenced for blank injections and reference surface using standard processing procedures and data processing and kinetic fitting were performed using Scrubber software, version 2.0c (BioLogic Software). Data were fitted using simple 1:1 binding model allowing for mass transport effects where appropriate.
(In general: In SPR one partner is held on a chip, and binding of the other changes the refractive index at the surface.)

Test [2] addresses CD137 expressed on cells (CHO cells expressing CD137); Jurkat cells of the Promega CD137 luciferase reporter … (UniProt Q07011 24-255, limits assumed). Nature of the test: cell-based or functional assay.
Test [3] addresses CD137 expressed on cells (CHO cells expressing CD137; Jurkat cells of the Promega CD137 luciferase reporter assay) (UniProt Q07011). Nature of the test: cell-based or functional assay.

T1 sequence (P29317 25-534 limits assumed): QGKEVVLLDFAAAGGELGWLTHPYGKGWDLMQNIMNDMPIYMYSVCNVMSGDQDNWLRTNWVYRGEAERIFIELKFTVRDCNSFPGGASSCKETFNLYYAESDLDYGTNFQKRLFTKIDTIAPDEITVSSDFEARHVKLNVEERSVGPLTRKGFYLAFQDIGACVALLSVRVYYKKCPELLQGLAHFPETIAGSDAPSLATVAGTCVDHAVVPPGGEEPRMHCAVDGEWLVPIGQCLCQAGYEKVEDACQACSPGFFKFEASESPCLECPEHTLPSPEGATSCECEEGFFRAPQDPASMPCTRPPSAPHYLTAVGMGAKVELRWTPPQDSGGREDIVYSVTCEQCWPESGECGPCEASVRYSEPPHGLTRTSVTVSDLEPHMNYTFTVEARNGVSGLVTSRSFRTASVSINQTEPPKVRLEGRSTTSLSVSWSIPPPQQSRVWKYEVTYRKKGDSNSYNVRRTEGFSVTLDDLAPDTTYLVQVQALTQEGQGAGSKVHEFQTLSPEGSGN
CD137 expressed on cells (CHO cells expressing CD137); Jurkat cells of the Promega CD137 luciferase reporter …, sequence (Q07011 24-255 limits assumed): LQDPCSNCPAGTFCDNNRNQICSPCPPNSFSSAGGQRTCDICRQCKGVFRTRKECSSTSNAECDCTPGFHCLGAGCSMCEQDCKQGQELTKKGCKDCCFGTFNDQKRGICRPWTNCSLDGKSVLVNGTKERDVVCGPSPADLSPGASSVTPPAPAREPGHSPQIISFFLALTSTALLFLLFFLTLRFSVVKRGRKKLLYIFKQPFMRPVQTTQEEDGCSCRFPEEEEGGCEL
CD137 expressed on cells (CHO cells expressing CD137; Jurkat cells of the Promega CD137 luciferase reporter assay), sequence (Q07011 24-255 limits assumed): as above

B1: heterotandem bicyclic peptide complex BCY7985 (peptide)
peptide 1: AXDCXLVNPLCLHPDWXC
peptide 2: ACIEEGQYCFADPYXC
modifications: BCY7732: N-terminal acetyl; Nle12; C-terminal Dap (diaminopropionic acid) bearing the linker; Ci, Cii, Ciii on TATA scaffold; BCY6169: N-terminal [PYA]-[B-Ala]-[Sar10]- (linker on PYA); HArg in the A-[HArg]-D extension; HyP1, dD10, HArg12; Ci, Cii, Ciii on TATA scaffold
notes: also called EphA2-CD137 heterotandem BCY7985
By Kd is commonly meant the equilibrium constant for the complex coming apart. Molecule B1 yielded a Kd with human EphA2 protein of 2 nM. Besides, in test [1], the Kd turned out to be 143 nM. Besides, in test [2], the “EC50 (nM), CD137 reporter assay, co-culture with SC-OV-3 (EphA2)” value (shortened to “EC50 (nM), CD137 reporter assay”) is 4 nM and the “Fold Induction over Background, CD137 reporter assay, co-culture with SC-OV-3 (EphA2)” value (shortened to “Fold Induction … with SC-OV-3 (EphA2)”) is 15 fold.

B2: heterotandem bicyclic peptide complex BCY8942 (peptide)
peptide 1: AXDCXLVNPLCLHPDWXC
peptide 2: ACIEEGQYCFADPYXC
modifications: BCY8045: N-terminal acetyl; D-Ala8, Nle12; C-terminal Dap (diaminopropionic acid) bearing the linker; Ci, Cii, Ciii on TATA scaffold; BCY6169: N-terminal [PYA]-[B-Ala]-[Sar10]- (linker on PYA); HArg in the A-[HArg]-D extension; HyP1, dD10, HArg12; Ci, Cii, Ciii on TATA scaffold
In the case of B2, the Kd with human EphA2 protein is 1.7 nM; in test [1] it was 853 nM. In test [3], the Fold Induction over Background, CD137 reporter assay, co-culture with PC3 (EphA2) was < 2 fold.

B3: heterotandem bicyclic peptide complex BCY9173 (peptide)
peptide 1: {Pent4ynoyl-βAla}-[Sar][Sar][Sar][Sar][Sar][Sar][Sar][Sar][Sar][Sar]A[hArg]DC[Hyp]LVNPLCLHP[dD]W[hArg]C
peptide 2: Ac-C[tBuAla]PE[dA]PYCFADPY[Nle]C[Dap]
modifications: linker I:14-I:21-I:28, II:1-II:8-II:15 via TATA; numbers in words are those of the source; also: heterotandem: PYA of chain 1 linked via PEG12 to C-terminal Dap of chain 2
Take B3: the Kd in the test with human EphA2 protein was determined as 2.1 nM. Further, the Kd in test [1] was 7.98 nM. Besides, in test [2], the “EC50 (nM), CD137 reporter assay” value is 0.94 nM and the “Fold Induction … with SC-OV-3 (EphA2)” value worked out at 21 fold.

B4: heterotandem bicyclic peptide complex BCY9758 (peptide)
peptide 1: AXDCXLVNPLCLHPDWXC
peptide 2: ACIEEGQYCFADPYXC
modifications: BCY7732: N-terminal acetyl; Nle12; C-terminal Dap (diaminopropionic acid) bearing the linker; Ci, Cii, Ciii on TATA scaffold; BCY6099: N-terminal [B-Ala]-[Sar10]- (linker on N-terminus); HArg in the A-[HArg]-D extension; HyP1, dD10, HArg12; Ci, Cii, Ciii on TATA scaffold
Consider B4, for which binding with human EphA2 protein was characterised by a dissociation constant (Kd) of 1.5 nM. Further, the Kd in test [1] is 189 nM. Further, in test [2], the “EC50 (nM), CD137 reporter assay” value stood at 1.2 nM and the “Fold Induction … with SC-OV-3 (EphA2)” value was 7 fold.
